Residue numbers refer to the chain shown, from its start. Names may count otherwise.
B1: variant 19363, monovalent anti-CD3 scFv-heterodimeric Fc (VL hC3E-1_6L3a (D52N), VH hC3E-1) (Fc fusion, not shown: a dimerising Fc or GST; small tags and cut ends)
scFv: EVQLVESGGGLVQPGGSLRLSCAASGVTFNYYGMSWIRQAPGKGLEWVASITNSGGRIYYPDSVKGRFTISRENTQKTLYLQMNSLRAEDTAVYYCTLDGRDGWVAYWGQGTLVTVSSGGGGSGGGGSGGGGSQFVLTQPPSASGTPGQRVTISCKRNTGNIGSNYVNWYQQLPGTAPKTIIYRNDKRPDGVPDRFSGSIDSSSNSASLAISGLQSEDEADYYCQSYSSGFIFGGGTKLTVL
notes: scFv order VH-(GGGGS)3-VL on Fc chain A; chain B is Fc only; also called v19363
B2: variant 19362, monovalent anti-CD3 scFv-heterodimeric Fc (VL hC3E-1_6L3b (D52N), VH hC3E-1) (Fc fusion, not shown: a dimerising Fc or GST; small tags and cut ends)
scFv: B1 scFv with Q134N, V136M, P141H, A143V, G145E, T146S, Q149K, R150T
notes: scFv order VH-(GGGGS)3-VL on Fc chain A; chain B is Fc only; also called v19362
B3: variant 18343, monovalent anti-CD3 scFv-heterodimeric Fc (VL hC3E-1-1L1, VH hC3E-1) (Fc fusion, not shown: a dimerising Fc or GST; small tags and cut ends)
scFv: EVQLVESGGGLVQPGGSLRLSCAASGVTFNYYGMSWIRQAPGKGLEWVASITNSGGRIYYPDSVKGRFTISRENTQKTLYLQMNSLRAEDTAVYYCTLDGRDGWVAYWGQGTLVTVSSGGGGSGGGGSGGGGSQSVLTQPPSASGTPGQRVTISCKRNTGNIGSNYVNWYQQLPGTAPKLLIYRDDKRPDGVPDRFSGSKSGTSASLAISGLQSEDEADYYCQSYSSGFIFGGGTKLTVL
notes: scFv order VH-(GGGGS)3-VL on Fc chain A; chain B is Fc only; also called v18343
B4: variant 19370, monovalent anti-CD3 scFv-heterodimeric Fc (VL hC3E-1_1L1d, VH hC3E-1) (Fc fusion, not shown: a dimerising Fc or GST; small tags and cut ends)
scFv: B3 scFv with S135V
notes: scFv order VH-(GGGGS)3-VL on Fc chain A; chain B is Fc only; also called v19370
B5: variant 19371, monovalent anti-CD3 scFv-heterodimeric Fc (VL hC3E-1_1L1c, VH hC3E-1) (Fc fusion)
scFv: B3 scFv with S135I
notes: scFv order VH-(GGGGS)3-VL on Fc chain A; chain B is Fc only; also called v19371; not shown: The Fc-only chain B is not tied by number to this variant
B6: variant 19373, monovalent anti-CD3 scFv-heterodimeric Fc (VL hC3E-1_1L1a, VH hC3E-1) (Fc fusion)
scFv: B3 scFv with S135F
notes: scFv order VH-(GGGGS)3-VL on Fc chain A; chain B is Fc only; also called v19373; not shown: The Fc-only chain B is not tied by number to this variant
B7: variant 21829, monovalent anti-CD3 scFv-heterodimeric Fc (VL hC3E-1_1L1d, VH hC3E-1(N53R)) (Fc fusion)
scFv: B3 scFv with N53R, S135V
notes: scFv order VH-(GGGGS)3-VL on Fc chain A; chain B is Fc only; also called v21829; not shown: Fc-only chain B is also left out
B8: variant 19372, monovalent anti-CD3 scFv-heterodimeric Fc (VL hC3E-1_1L1b, VH hC3E-1) (Fc fusion)
scFv: B3 scFv with S135L
notes: scFv order VH-(GGGGS)3-VL on Fc chain A; chain B is Fc only; also called v19372; not shown: The Fc-only chain B is not tied by number to this variant
B9: variant 18346, monovalent anti-CD3 scFv-heterodimeric Fc (VL hC3E-1 wildtype, VH hC3E-1 wildtype) (Fc fusion)
scFv: EVQLVESGGGLVQPGGSLRLSCAASGVTFNYYGMSWIRQAPGKGLEWVASITNSGGRIYYPDSVKGRFTISRENTQKTLYLQMNSLRAEDTAVYYCTLDGRDGWVAYWGQGTLVTVSSGGGGSGGGGSGGGGSNFMLTQPHSVSESPGKTVTISCKRNTGNIGSNYVNWYQQHEGSSPTTIIYRDDKRPDGVSDRFSGSIDRSSKSASLTISNLKTEDEADYFCQSYSSGFIFGGGTKLTVL
notes: scFv order VH-(GGGGS)3-VL on Fc chain A; chain B is Fc only; also called v18346; parental construct v18346; not shown: Fc-only chain B is also left out
B10: variant 18596, monovalent anti-CD3 scFv-heterodimeric Fc (VL hC3E-1, VH hC3E-1a D102E) (Fc fusion, not shown: a dimerising Fc or GST; small tags and cut ends)
scFv: B9 scFv with D102E
notes: scFv order VH-(GGGGS)3-VL on Fc chain A; chain B is Fc only; also called v18596
B11: variant 21826, monovalent anti-CD3 scFv-heterodimeric Fc (VL hC3E-1 (D52N), VH hC3E-1(N53R_D102E)) (Fc fusion)
scFv: B9 scFv with N53R, D102E, D185N
notes: scFv order VH-(GGGGS)3-VL on Fc chain A; chain B is Fc only; also called v21826; not shown: Fc-only chain B is also left out
B12: variant 21828, monovalent anti-CD3 scFv-heterodimeric Fc (VL hC3E-1 (D52N), VH hC3E-1(N53S_D102E)) (Fc fusion)
scFv: B9 scFv with N53S, D102E, D185N
notes: scFv order VH-(GGGGS)3-VL on Fc chain A; chain B is Fc only; also called v21828; not shown: Fc-only chain B is also left out
B13: variant 21827, monovalent anti-CD3 scFv-heterodimeric Fc (VL hC3E-1_1L1d, VH hC3E-1(N53S_D102E)) (Fc fusion)
scFv: B3 scFv with N53S, D102E, S135V
notes: scFv order VH-(GGGGS)3-VL on Fc chain A; chain B is Fc only; also called v21827; not shown: Fc-only chain B is also left out
B14: variant 21825, monovalent anti-CD3 scFv-heterodimeric Fc (VL hC3E-1_1L1d, VH hC3E-1(N53R_D102E)) (Fc fusion)
scFv: B3 scFv with N53R, D102E, S135V
notes: scFv order VH-(GGGGS)3-VL on Fc chain A; chain B is Fc only; also called v21825; not shown: Fc-only chain B is also left out

molecular target: T1, Recombinant CD3epsilon/delta Fc fusion protein (Sino Biological) (human, UniProt P07766 23-126; P04234 22-105); test: SPR (ProteOn XPR36), Equilibrium Fit, mean of three runs
T1 construct: Bought reagent; also called recombinant CD3 fusion protein; human CD3 antigen; not shown: Fc of the bought fusion protein; not described
T1 sequence (P07766 23-126, stated change not applied, chain 1 of 2): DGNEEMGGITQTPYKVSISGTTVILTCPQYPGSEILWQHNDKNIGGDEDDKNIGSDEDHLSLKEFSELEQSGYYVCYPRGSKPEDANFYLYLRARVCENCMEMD
T1 sequence (P04234 22-105, stated change not applied, chain 2 of 2): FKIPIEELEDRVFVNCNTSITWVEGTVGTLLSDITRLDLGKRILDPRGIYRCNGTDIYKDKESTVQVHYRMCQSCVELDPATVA
Procedure: (§1) All SPR binding experiments were carried out using a BioRad ProteOn XPR36 instrument (Bio-Rad Laboratories, Hercules, Calif.) at 25° C. with 10 mM HEPES, 150 mM NaCl, 3.4 mM EDTA, and 0.05% Tween 20 at pH 7.4. Recombinant CD3epsilon/delta Fc fusion protein (Sino Biological, Wayne, Pa.) was captured on anti-Fc capture sensorchips. Purified antibodies were indirectly captured on the sensorchip by binding the recombinant CD3 fusion protein when injected at 25 μL/min for 240s (resulting in approx. 500 RUs) following a buffer injection to establish a stable baseline. Resultant KD values were determined from binding isotherms using the Equilibrium Fit model with reported values as the mean of three independent runs.

| Binder | Kd |
| --- | --- |
| B1 | 6.6 nM |
| B2 | 3 nM |
| B3 | 30 nM |
| B4 | 6.8 nM |
| B5 | 7.1 nM |
| B6 | 3 nM |
| B7 | 3.06 nM |
| B8 | 3.1 nM |
| B9 | 0.26 nM |
| B10 | 9 nM |

molecular target: T2, human CD3 expressed on T cells (Jurkat cells, human pan T cells/PBMC) (human, UniProt P07766 23-207); test: cell ELISA on CD3+ Jurkat cells
T2 construct: whole, on cells; On T cells CD3 epsilon stands in the CD3 complex with the gamma, delta and zeta chains and the T-cell receptor; only the epsilon chain is written out; also called CD3+ Jurkat cells; human T cells
T2 sequence (P07766 23-207): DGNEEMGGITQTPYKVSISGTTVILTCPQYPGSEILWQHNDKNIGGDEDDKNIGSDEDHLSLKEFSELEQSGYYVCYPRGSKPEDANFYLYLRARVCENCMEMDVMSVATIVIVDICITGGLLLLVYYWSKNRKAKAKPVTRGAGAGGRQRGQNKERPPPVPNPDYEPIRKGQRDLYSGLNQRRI
Procedure: Cells were centrifuged and seeded in a 96-well filter plate in 50% complete culture medium/50% Blocking buffer. Equal volumes of 2× anti-CD3 scFv-Fc constructs or controls were added to cells and incubated for 1 hour. The plate was washed 4 times using vacuum filtration. An HRP-conjugated anti-human IgG Fc gamma specific secondary antibody was added to the wells and further incubated for 1 hour. The plate is washed 7 times by vacuum filtration followed by the addition of TMB substrate at room temperature. The reaction was stopped by adding 1 M sulfuric acid and supernatant was transferred into a clear 96-well plate. Absorbance (450 nm) was read on a Spectramax 340PC plate reader with path-check correction. Binding of the different scFv-Fc constructs to Jurkat cells and the apparent binding affinities are shown in FIG. 7 and Table 7, respectively.

| Binder | EC50 |
| --- | --- |
| B1 | 1.45 nM |
| B2 | 1.35 nM |
| B3 | 2.61 nM |
| B4 | 3.09 nM |
| B5 | 1.72 nM |
| B6 | 0.99 nM |
| B7 | 0.65 nM |
| B8 | 3.47 nM |
| B9 | 0.34 nM |
| B11 | ~36100 nM |
| B12 | ~32.8 nM |
| B10 | 2.57 nM |

molecular target: T2, human CD3 expressed on T cells (Jurkat …); test: flow cytometry on human T cells
Procedure: Frozen human pan T cells or PBMCs were thawed and incubated with either media or serial dilutions of the anti-CD3 scFv-Fc constructs for one hour at 4° C. Commercially available SP34-2 antibody was used as positive controls while untreated cultures were used as negative controls. Following incubation with the anti-CD3 scFv constructs, the cells were washed and stained with a panel of conjugated antibodies specific for CD4, CD8, and IgG-Fc. The samples were acquired on a flow cytometer and analyzed using FlowJo version 10.1 software.

| Binder | EC50 |
| --- | --- |
| B1 | 0.7 nM |
| B2 | ~0.6 nM |
| B4 | 0.7 nM |
| B5 | 0.5 nM |
| B7 | 0.4 nM |
| B13 | 1.9 nM |
| B8 | 0.9 nM |
| B9 | ~0.3 nM |
| B11 | 1.7 nM |
| B12 | 1.6 nM |
| B10 | 69.5 nM |

molecular target: T3, cynomolgus monkey CD3 expressed on T cells (cynomolgus pan T cells/PBMC, HSC-F cell line) (cynomolgus monkey, UniProt Q95LI5 22-198); test: flow cytometry on cynomolgus pan T cells gated CD4+, detection with anti-IgG-Fc, geo MFI
T3 construct: whole, on cells; On T cells in the CD3 complex with the other subunits; only the epsilon chain is written out; also called cyno CD3; cyno T cells
T3 sequence (Q95LI5 22-198): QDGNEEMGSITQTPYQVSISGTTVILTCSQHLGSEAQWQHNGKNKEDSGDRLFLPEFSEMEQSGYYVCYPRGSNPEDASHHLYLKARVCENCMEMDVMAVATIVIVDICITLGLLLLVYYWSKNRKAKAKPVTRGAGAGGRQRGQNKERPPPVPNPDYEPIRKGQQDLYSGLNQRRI
Procedure: (§2) Frozen Cynomolgus monkey PBMCs were thawed then washed with RPMI-1640 media. Pan T cells were then isolated from the PBMCs using a negative isolation kit (Miltenyi Biotec, San Diego, Calif.) as per the manufacturer's instructions. The pan T cells were incubated in media alone or media containing serial dilutions of the anti-CD3 scFv-Fc constructs for one hour at 4° C. Commercially available SP34-2 antibody was used as positive controls while untreated cultures were used as negative controls. Following incubation with the anti-CD3 scFv constructs, the cells were washed and stained with a panel of conjugated antibodies specific for CD4, CD8, and IgG-Fc. The samples were acquired on a flow cytometer and analyzed using FlowJo version 10.1 software.

| Binder | EC50 (read off the curve) |
| --- | --- |
| B2 | ~2 µg/mL |
| B9 | ~1 µg/mL |

molecular target: T3, cynomolgus monkey CD3 expressed on T …; test: flow cytometry on cynomolgus T cells
Procedure: as §2

| Binder | EC50 |
| --- | --- |
| B1 | 7.1 nM |
| B2 | 1.9 nM |
| B4 | 2.4 nM |
| B5 | 3.4 nM |
| B14 | 7 nM |
| B7 | 1.6 nM |
| B13 | 16.3 nM |
| B8 | 9.3 nM |
| B9 | 1.4 nM |
| B11 | 2.5 nM |
| B12 | 104 nM |
| B10 | 172 nM |

molecular target: T1, Recombinant CD3epsilon/delta Fc fusion …; test: SPR (ProteOn XPR36), CD3epsilon/delta Fc fusion captured on anti-Fc chip, variant injected for 240 s; kinetic constants printed above the sensorgrams
Procedure: as §1

| Binder | Kd | koff | kon |
| --- | --- | --- | --- |
| B1 | 6.62 nM | 0.00383 s⁻¹ | 578000 M⁻¹ s⁻¹ |
| B2 | 3.03 nM | 0.00242 s⁻¹ | 798000 M⁻¹ s⁻¹ |
| B7 | 3.12 nM | 0.00382 s⁻¹ | 1.22e+06 M⁻¹ s⁻¹ |
| B9 | 0.117 nM | 0.000163 s⁻¹ | 1.39e+06 M⁻¹ s⁻¹ |

— US20210277118A1 (Daiichi Sankyo, published 2021)
